The target in series [1] is T1, Gsx2 167-305 (Mus musculus, UniProt P31316 167-305). Description: EMSA; similar free probe depletion, lower cooperativity; ITC: 50 mM sodium phosphate pH 6.5, 150 mM NaCl, 20 C; EMSA: 35 nM probe, 15 min room temperature, buffer as in cited ref 31. The following applies: protein: recombinant; tags: N-terminal His-tag, cleaved with PreScission; chain copies: 2; label: 5' IRDye700 on complementary strand (linker S14); blunt. Background: Mobility shift assays separate free from complexed probe on a gel.

Series [2] has as its target T2, Gsx2HD L216E (Mus musculus, UniProt P31316 203-264, L216E). Description: EMSA; binds; reduced cooperativity; ITC: 50 mM sodium phosphate pH 6.5, 150 mM NaCl, 20 C; EMSA: 35 nM probe, 15 min room temperature, buffer as in cited ref 31. The following applies: protein: recombinant; tags: N-terminal His-tag, cleaved with PreScission; label: 5' IRDye700 on complementary strand (linker S14); blunt.

Series [3] addresses T3, Gsx2HD L231E (Mus musculus, UniProt P31316 203-264, L231E). The description is as above. The note with it: protein: recombinant; tags: N-terminal His-tag, cleaved with PreScission; label: 5' IRDye700 on complementary strand (linker S14); blunt.
For series [4], the target named is T4, Gsx2HD S212E (Mus musculus, UniProt P31316 203-264, S212E). The description is as above. The note with it: protein: recombinant; tags: N-terminal His-tag, cleaved with PreScission; label: 5' IRDye700 on complementary strand (linker S14); blunt.
The target in series [5] is T2, Gsx2HD L216E. The experiment in a line: EMSA; binds equally to WT; little to no cooperativity; ITC: 50 mM sodium phosphate pH 6.5, 150 mM NaCl, 20 C; EMSA: 35 nM probe, 15 min room temperature, buffer as in cited ref 31. The note with it: protein: recombinant; tags: N-terminal His-tag, cleaved with PreScission; label: 5' IRDye700 on complementary strand (linker S14); blunt.

In series [6] the target is T3, Gsx2HD L231E. The description is as above. The following applies: protein: recombinant; tags: N-terminal His-tag, cleaved with PreScission; label: 5' IRDye700 on complementary strand (linker S14); blunt.
In series [7] the target is T4, Gsx2HD S212E. The description is as above. The following applies: protein: recombinant; tags: N-terminal His-tag, cleaved with PreScission; label: 5' IRDye700 on complementary strand (linker S14); blunt.
Series [8] has as its target T5, Gsx2HD (Mus musculus, UniProt P31316 203-264). Description: ITC; K 6.8 ± 4.2 x10^7 M-1; N 1.02; ITC: 50 mM sodium phosphate pH 6.5, 150 mM NaCl, 20 C; EMSA: 35 nM probe, 15 min room temperature, buffer as in cited ref 31. The following applies: protein: recombinant; tags: N-terminal His-tag, cleaved with PreScission; chain copies: 2; 5' overhang 1 nt on each strand.

The target in series [9] is T1, Gsx2 167-305. The experiment in a line: ITC; K 1.3 ± 0.6 x10^7 M-1; N 0.85; ITC: 50 mM sodium phosphate pH 6.5, 150 mM NaCl, 20 C; EMSA: 35 nM probe, 15 min room temperature, buffer as in cited ref 31. The note with it: protein: recombinant; tags: N-terminal His-tag, cleaved with PreScission; chain copies: 2; 5' overhang 1 nt on each strand.
Series [10] addresses T6, Gsx1HD (Mus musculus, UniProt P31315 146-207). Description: ITC; K 5.5 ± 0.8 x10^7 M-1; N 0.96; ITC: 50 mM sodium phosphate pH 6.5, 150 mM NaCl, 20 C; EMSA: 35 nM probe, 15 min room temperature, buffer as in cited ref 31. The following applies: protein: recombinant; 5' overhang 1 nt on each strand. Background: Isothermal titration calorimetry measures the heat released or taken up as one component is titrated into another.

Another series deals with Gsx2HD I234E (Mus musculus, UniProt P31316 203-264, I234E). The experiment in a line: ITC; K 5.1 ± 4.2 x10^7 M-1; N 1.05; Fig S6 isotherm 14.7 nM; ITC: 50 mM sodium phosphate pH 6.5, 150 mM NaCl, 20 C; EMSA: 35 nM probe, 15 min room temperature, buffer as in cited ref 31. The note with it: protein: recombinant; tags: N-terminal His-tag, cleaved with PreScission; 5' overhang 1 nt on each strand.

Series [11] concerns the target T5, Gsx2HD. The experiment in a line: ITC; K 2.8 ± 1.4 x10^7 M-1; N 0.98; ITC: 50 mM sodium phosphate pH 6.5, 150 mM NaCl, 20 C; EMSA: 35 nM probe, 15 min room temperature, buffer as in cited ref 31. The note with it: protein: recombinant; tags: N-terminal His-tag, cleaved with PreScission; chain copies: 2; 5' overhang 1 nt on each strand.
In series [12] the target is T1, Gsx2 167-305. Description: ITC; K 0.7 ± 0.2 x10^7 M-1; N 0.94; ITC: 50 mM sodium phosphate pH 6.5, 150 mM NaCl, 20 C; EMSA: 35 nM probe, 15 min room temperature, buffer as in cited ref 31. The note with it: protein: recombinant; tags: N-terminal His-tag, cleaved with PreScission; chain copies: 2; 5' overhang 1 nt on each strand.
In series [13] the target is T6, Gsx1HD. The experiment in a line: ITC; K 2.4 ± 0.9 x10^7 M-1; N 0.97; ITC: 50 mM sodium phosphate pH 6.5, 150 mM NaCl, 20 C; EMSA: 35 nM probe, 15 min room temperature, buffer as in cited ref 31. The note with it: protein: recombinant; 5' overhang 1 nt on each strand.

For orientation: Kd means the equilibrium constant for the complex coming apart.

T1 sequence (P31316 167-305): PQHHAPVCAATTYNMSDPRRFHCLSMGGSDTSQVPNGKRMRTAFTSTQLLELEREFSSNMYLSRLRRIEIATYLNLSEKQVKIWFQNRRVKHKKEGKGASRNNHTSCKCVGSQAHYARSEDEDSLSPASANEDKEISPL
T6 sequence (P31315 146-207): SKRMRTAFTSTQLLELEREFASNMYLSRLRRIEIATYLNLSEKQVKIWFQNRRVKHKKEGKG
T5 sequence (P31316 203-264): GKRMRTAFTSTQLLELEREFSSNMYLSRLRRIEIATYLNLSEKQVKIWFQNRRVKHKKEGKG
T4 sequence (P31316 203-264 S212E): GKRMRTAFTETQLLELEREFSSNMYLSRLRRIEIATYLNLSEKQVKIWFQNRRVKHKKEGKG
T2 sequence (P31316 203-264 L216E): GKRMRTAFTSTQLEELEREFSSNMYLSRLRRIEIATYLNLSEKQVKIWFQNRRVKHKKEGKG
T3 sequence (P31316 203-264 L231E): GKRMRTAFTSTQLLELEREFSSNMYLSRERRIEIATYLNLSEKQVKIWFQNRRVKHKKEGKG
Sequence of Gsx2HD I234E (P31316 203-264 I234E): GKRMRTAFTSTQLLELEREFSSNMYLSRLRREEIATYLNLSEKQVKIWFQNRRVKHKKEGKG

B1: GCGGG spacer dimer probe (dsDNA)
DNA 1: TCCAACTAATTAGCGGGTAATTCGTAGTGCGGGCGTGGCT
DNA 2: AGCCACGCCCGCACTACGAATTACCCGCTAATTAGTTGGA
Turning to B1, the “cooperativity factor (tau)” value with Gsx2 167-305 [1] was 12.6 tau cooperativity factor (mean of 3 G/C spacer probes).

B2: GCCGG spacer dimer probe (dsDNA)
DNA 1: TCCAACTAATTAGCCGGTAATTCGTAGTGCGGGCGTGGCT
DNA 2: AGCCACGCCCGCACTACGAATTACCGGCTAATTAGTTGGA
In the case of B2, in the series with Gsx2 167-305 [1], the “cooperativity factor (tau)” value is 12.6 tau cooperativity factor (mean of 3 G/C spacer probes).

B3: 7bpS / AAATT spacer dimer probe (dsDNA)
DNA 1: TCCAACTAATTAAAATTTAATTCGTAGTGCGGGCGTGGCT
DNA 2: AGCCACGCCCGCACTACGAATTAAATTTTAATTAGTTGGA
Take B3: the binding result in the series with Gsx2HD L216E [2], in the series with Gsx2HD L231E [3] and with Gsx2HD S212E [4] was “binds” throughout.

B4: GGGCC spacer dimer probe (dsDNA)
DNA 1: TCCAACTAATTAGGGCCTAATTCGTAGTGCGGGCGTGGCT
DNA 2: AGCCACGCCCGCACTACGAATTAGGCCCTAATTAGTTGGA
Take B4: in the series with Gsx2 167-305 [1], the “cooperativity factor (tau)” value is 12.6 tau cooperativity factor (mean of 3 G/C spacer probes).

B5: 8bpS dimer probe (dsDNA)
DNA 1: TCCAACTAATTAAAGATTTAATTCGTAGTGCGGGCGTGGCT
DNA 2: AGCCACGCCCGCACTACGAATTAAATCTTTAATTAGTTGGA
For the molecule B5, the binding result with Gsx2HD L216E [5], in the series with Gsx2HD L231E [6] and in the series with Gsx2HD S212E [7] was “binds” throughout.

B6: TAATTA consensus 15-mer (dsDNA)
DNA 1: TGAGCTAATTAAAGC
DNA 2: AGCTTTAATTAGCTC
As for B6, the Kd with Gsx2HD [8] is 15 nM; with Gsx2 167-305 [9], 77 nM; with Gsx1HD [10], 18 nM; in the series with Gsx2HD I234E, 20 nM.

B7: TAATGG 15-mer (Common Q50 site) (dsDNA)
DNA 1: TGAGCTAATGGAAGC
DNA 2: AGCTTCCATTAGCTC
Turning to B7, the Kd with Gsx2HD [11] stood at 36 nM; with Gsx2 167-305 [12] it was 143 nM; with Gsx1HD [13] it was 42 nM.
